Article PMC6741143, “A putative merR family transcription factor Slr0701 regulates mercury inducible expression of MerA in the cyanobacterium Synechocystis sp. PCC6803” (MicrobiologyOpen, 2019)

T1: Slr0701 (6x-His, MerR family regulator) (Synechocystis sp. PCC6803, UniProt Q55963 1-137)
T1 sequence: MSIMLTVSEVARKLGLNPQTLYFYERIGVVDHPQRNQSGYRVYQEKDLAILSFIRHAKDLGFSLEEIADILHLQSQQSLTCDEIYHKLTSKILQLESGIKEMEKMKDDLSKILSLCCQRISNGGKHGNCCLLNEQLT

B1: 6x-His-Slr0701 protein (putative MerR family transcriptional regulator Slr0701) (natural protein, Synechocystis sp. PCC6803, UniProt Q55963 1-137, looked up)
chain: T1 sequence
notes: Slr0701, putative MerR family transcriptional regulator of Synechocystis sp; PCC6803; the slr0701 ORF amplified with primers from the start codon (GTG) to the stop codon and cloned into pET-28a(+) at NheI and EcoRI; not shown: His6, C-terminal, kept
B2: Pslr0701 50-bp oligonucleotide duplex (dsDNA)
DNA 1: TACTACAATATATTCCCTATACTTAGGTATAAGGTTGTAGGTTGATATAG
DNA 2: CTATATCAACCTACAACCTTATACCTAAGTATAGGGAATATATTGTAGTA

Tests used:
[1] = molecular target: the molecule itself; assay: SDS-PAGE without 2-mercaptoethanol; purified 6x-His-Slr0701 on 15% SDS-PAGE under semi-denaturing condition (without 2-mercaptoethanol), compared with a sample with 2-mercaptoethanol; monomer to dimer
[2] = molecular target: T1, Slr0701 (6x-His, MerR family regulator); assay: SPR; 62 uM HgCl2; EMSA: 20 ul, 80 ng DNA, 0.5 or 1 ug protein, binding buffer not specified, 30 min at 25 C, 6% native PAGE in 0.5x TBE at 4 C, SYBR Green; SPR: Biacore T200, SA; details: protein: recombinant; tags: 6xHis (text says C-terminal; pET-28a NheI/EcoRI clone, also written 6x-His-Slr0701); chain copies: 2; label: 5' biotin on strand 1; blunt

Row | Binder | stoichiometry N [1] | binding signal [2]
1 | B1 | 2 | –
2 | B2 | – | ~1000 fold higher affinity with HgCl2 than without
